Experiments:
cyclophilin D [1] = target: cyclophilin D (UniProt P30405); experiment: SPR
cyclophilin D [2] = target: cyclophilin D (UniProt P30405); experiment: NMR titration

Chain of cyclophilin D (P30405 43-207): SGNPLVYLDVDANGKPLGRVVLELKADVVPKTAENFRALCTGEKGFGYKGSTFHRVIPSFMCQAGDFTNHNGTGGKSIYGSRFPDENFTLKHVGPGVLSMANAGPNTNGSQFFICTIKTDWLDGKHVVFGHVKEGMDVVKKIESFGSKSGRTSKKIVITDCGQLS

Kd (cyclophilin D [1]) | residue-based KD (CypD residue G65) (cyclophilin D [2]) | residue-based KD (CypD residue I114) (cyclophilin D [2]) | residue-based KD (CypD residue S77) (cyclophilin D [2]) | Substance
8.4 µM | 4.1 μΜ | 32 μΜ | 6.6 μΜ | p53 N-terminal domain (NTD) (domain or fragment)
10 µM |  |  |  | p53 NTD-DBD (domain or fragment)
